# Test results published in publication PMC8311663 (Molecular cell, 2021).
# Assays:
# [1] = biological target: RNAP core (Mtb);sigmaA;CarD;RbpA;WhiB7 (Mycobacterium …, UniProt P9WGZ1;P9WGY9;P9WGY7;P9WGY5;P9WGI1;P9WJG3;P9WHJ5;Q6MX01 …, L7M||||); experiment: cryo-EM
# [2] = biological target: RNAP core (Mtb);sigmaA;CarD;RbpA (Mycobacterium …, UniProt P9WGZ1;P9WGY9;P9WGY7;P9WGY5;P9WGI1;P9WJG3;P9WHJ5 …, L7M|||); experiment: cryo-EM
binder,measurement,setting,value
whiB7 promoter (-70 to +30) (dsDNA) DNA 1: CTGTACCGGCAAACGCGCAGGTCAGAAAATCGGTTGTGGTCAGCTGCTGCCACCGGTTAACCTCCAGGTCGCATTCTGCTGCCAGCCTGGAGATGGCATT DNA 2: AATGCCATCTCCAGGCTGGCAGCAGAATGCGACCTGGAGGTTAACCGGTGGCAGCAGCTGACCACAACCGATTTTCTGACCTGCGCGTTTGCCGGTACAG,binding result,[1],binds
same,binding result,[2],binds
